In the supplement of paper PMC10598134:
± gives the standard deviation.

Experiment: collision cross section of modified peptide (TIMS, N2, iRT-aligned); higher = larger / more extended gas-phase ion
Summary of the method: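 On a timsTOF Pro/HT (dda-PASEF, nitrogen, ~2.4 mbar), synthetic peptide pools were analysed after a 120-min nanoflow C18 separation at 60 °C and identified in MaxQuant. Three reference ions served for 1/K0 calibration, with run-wise alignment to the median iRT peptide deviation. Collision cross section comes from the Mason-Schamp equation, using the most abundant feature per charge state averaged over 1–3 technical replicates.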

[1] = charge state: 2, modification: Glutarylation
[2] = charge state: 3, modification: Glutarylation
[3] = charge state: 2, modification: GlyGly (K)
[4] = charge state: 3, modification: GlyGly (K)
[5] = charge state: 3, modification: Malonyl
[6] = charge state: 2, modification: Methyl (K)
[7] = charge state: 3, modification: Methyl (K)
[8] = charge state: 2, modification: Succinyl
[9] = charge state: 3, modification: Succinyl
[10] = charge state: 3, modification: Trimethyl (K)
[11] = charge state: 2, modification: hydroxyisobutyryl
[12] = charge state: 3, modification: hydroxyisobutyryl
[13] = charge state: 2, modification: Acetyl (K)
[14] = charge state: 3, modification: Acetyl (K)
[15] = charge state: 2, modification: Butyryl
[16] = charge state: 3, modification: Butyryl
[17] = charge state: 2, modification: Crotonyl
[18] = charge state: 3, modification: Crotonyl
[19] = charge state: 2, modification: Dimethyl (K)
[20] = charge state: 3, modification: Dimethyl (K)
[21] = charge state: 2, modification: Formyl
[22] = charge state: 2, modification: Malonyl
[23] = charge state: 2, modification: Trimethyl (K)
[24] = charge state: 2, modification: Hydroxyproline
[25] = charge state: 3, modification: Hydroxyproline
[26] = charge state: 2, modification: Nitro (Y)
[27] = charge state: 2, modification: Phospho (Y)

## VGIDTPDIDIHGPEGKLK [_VGIDTPDIDIHGPEGK(Gluratylation)LK_]
[1]
  collision cross section: 497.76 ± 0.79 Å²
[2]
  collision cross section: 542.69 ± 1.1 Å²

## VGIDTPDIDIHGPEGKLK [_VGIDTPDIDIHGPEGK(GlyGly (K))LK_]
[3]
  collision cross section: 467.27 Å²
[4]
  collision cross section: 525.5 ± 1.3 Å²

## VGIDTPDIDIHGPEGKLK [_VGIDTPDIDIHGPEGK(Malonyl)LK_]
[5]
  collision cross section: 540.98 Å²

## VGIDTPDIDIHGPEGKLK [_VGIDTPDIDIHGPEGK(Methyl (K))LK_]
[6]
  collision cross section: 463.74 Å²
[7]
  collision cross section: 542.59 ± 0.45 Å²

## VGIDTPDIDIHGPEGKLK [_VGIDTPDIDIHGPEGK(Succinyl)LK_]
[8]
  collision cross section: 494.78 Å²
[9]
  collision cross section: 540.29 ± 1.1 Å²

## VGIDTPDIDIHGPEGKLK [_VGIDTPDIDIHGPEGK(Trimethyl (K))LK_]
[10]
  collision cross section: 543.29 ± 0.9 Å²

## VGIDTPDIDIHGPEGKLK [_VGIDTPDIDIHGPEGK(hydroxyisobutyryl)LK_]
[11]
  collision cross section: 500.35 ± 0.99 Å²
[12]
  collision cross section: 542.95 ± 2 Å²

## VGLQVVAVKAPGFGDNR [_VGLQVVAVK(Acetyl (K))APGFGDNR_]
[13]
  collision cross section: 442.66 ± 2 Å²
[14]
  collision cross section: 493.83 ± 2.3 Å²

## VGLQVVAVKAPGFGDNR [_VGLQVVAVK(Butyryl)APGFGDNR_]
[15]
  collision cross section: 450.45 ± 0.52 Å²
[16]
  collision cross section: 500.38 ± 1.9 Å²

## VGLQVVAVKAPGFGDNR [_VGLQVVAVK(Crotonyl)APGFGDNR_]
[17]
  collision cross section: 449.86 ± 0.94 Å²
[18]
  collision cross section: 499.08 ± 1.6 Å²

## VGLQVVAVKAPGFGDNR [_VGLQVVAVK(Dimethyl (K))APGFGDNR_]
[19]
  collision cross section: 465.4 ± 1.7 Å²
[20]
  collision cross section: 490.92 ± 1.2 Å²

## VGLQVVAVKAPGFGDNR [_VGLQVVAVK(Formyl)APGFGDNR_]
[21]
  collision cross section: 440.17 ± 1.2 Å²
Charge state: 3, modification: Formyl
  collision cross section: 529.54 ± 3 Å²

## VGLQVVAVKAPGFGDNR [_VGLQVVAVK(Gluratylation)APGFGDNR_]
[1]
  collision cross section: 447.64 ± 0.95 Å²
[2]
  collision cross section: 510.32 ± 1 Å²

## VGLQVVAVKAPGFGDNR [_VGLQVVAVK(GlyGly (K))APGFGDNR_]
[3]
  collision cross section: 471.7 ± 1.6 Å²
[4]
  collision cross section: 536.75 ± 1.1 Å²

## VGLQVVAVKAPGFGDNR [_VGLQVVAVK(Malonyl)APGFGDNR_]
[22]
  collision cross section: 445.13 ± 1 Å²
[5]
  collision cross section: 541.36 ± 0.027 Å²

## VGLQVVAVKAPGFGDNR [_VGLQVVAVK(Methyl (K))APGFGDNR_]
[6]
  collision cross section: 454.02 ± 2.2 Å²
[7]
  collision cross section: 491.77 ± 3.2 Å²

## VGLQVVAVKAPGFGDNR [_VGLQVVAVK(Succinyl)APGFGDNR_]
[8]
  collision cross section: 449.31 ± 0.96 Å²
[9]
  collision cross section: 542.29 ± 1.1 Å²

## VGLQVVAVKAPGFGDNR [_VGLQVVAVK(Trimethyl (K))APGFGDNR_]
[23]
  collision cross section: 473 Å²
[10]
  collision cross section: 497.24 ± 1.6 Å²

## VGLQVVAVKAPGFGDNR [_VGLQVVAVK(hydroxyisobutyryl)APGFGDNR_]
[11]
  collision cross section: 453.58 ± 0.89 Å²
[12]
  collision cross section: 502.92 ± 2.8 Å²

## VGTASVLQPVKK [_VGTASVLQPVK(Acetyl (K))K_]
[13]
  collision cross section: 379.84 ± 0.47 Å²

## VGTASVLQPVKK [_VGTASVLQPVK(Biotin)K_]
Charge state: 2, modification: Biotin
  collision cross section: 406.39 ± 1.1 Å²

## VGTASVLQPVKK [_VGTASVLQPVK(Butyryl)K_]
[15]
  collision cross section: 385.91 ± 0.85 Å²

## VGTASVLQPVKK [_VGTASVLQPVK(Crotonyl)K_]
[17]
  collision cross section: 387.11 ± 0.8 Å²

## VGTASVLQPVKK [_VGTASVLQPVK(Dimethyl (K))K_]
[19]
  collision cross section: 391.72 ± 3 Å²
[20]
  collision cross section: 440.56 ± 1.6 Å²

## VGTASVLQPVKK [_VGTASVLQPVK(Formyl)K_]
[21]
  collision cross section: 375.49 ± 0.89 Å²

## VGTASVLQPVKK [_VGTASVLQPVK(Gluratylation)K_]
[1]
  collision cross section: 391.34 ± 0.52 Å²
[2]
  collision cross section: 415.52 ± 3.5 Å²

## VGTASVLQPVKK [_VGTASVLQPVK(GlyGly (K))K_]
[3]
  collision cross section: 404.53 ± 0.36 Å²
[4]
  collision cross section: 466.32 ± 0.78 Å²

## VGTASVLQPVKK [_VGTASVLQPVK(Malonyl)K_]
[22]
  collision cross section: 381.57 ± 0.0073 Å²

## VGTASVLQPVKK [_VGTASVLQPVK(Methyl (K))K_]
[6]
  collision cross section: 392.83 ± 0.43 Å²
[7]
  collision cross section: 460.66 ± 3.8 Å²

## VGTASVLQPVKK [_VGTASVLQPVK(Propionyl)K_]
Charge state: 2, modification: Propionyl
  collision cross section: 382.42 ± 0.33 Å²

## VGTASVLQPVKK [_VGTASVLQPVK(Succinyl)K_]
[8]
  collision cross section: 383.62 ± 0.87 Å²
[9]
  collision cross section: 412.94 ± 4.4 Å²

## VGTASVLQPVKK [_VGTASVLQPVK(Trimethyl (K))K_]
[23]
  collision cross section: 394.06 ± 0.62 Å²
[10]
  collision cross section: 455.76 ± 1.5 Å²

## VGTASVLQPVKK [_VGTASVLQPVK(hydroxyisobutyryl)K_]
[11]
  collision cross section: 388.32 ± 0.29 Å²
[12]
  collision cross section: 413.48 ± 1.6 Å²

## VGVEAKQPNSAIR [_VGVEAKQP(Hydroxyproline)NSAIR_]
[24]
  collision cross section: 405.11 ± 0.27 Å²
[25]
  collision cross section: 482.65 ± 0.83 Å²

## VGVEVPDVNIEGPEGKLK [_VGVEVPDVNIEGPEGK(Acetyl (K))LK_]
[13]
  collision cross section: 456.04 ± 2.4 Å²
[14]
  collision cross section: 513.89 Å²

## VGVEVPDVNIEGPEGKLK [_VGVEVPDVNIEGPEGK(Butyryl)LK_]
[15]
  collision cross section: 461.93 ± 0.5 Å²

## VGVEVPDVNIEGPEGKLK [_VGVEVPDVNIEGPEGK(Crotonyl)LK_]
[17]
  collision cross section: 462.4 ± 1.4 Å²

## VGVEVPDVNIEGPEGKLK [_VGVEVPDVNIEGPEGK(Dimethyl (K))LK_]
[19]
  collision cross section: 456.47 ± 2.5 Å²
[20]
  collision cross section: 540.33 ± 0.77 Å²

## VGVEVPDVNIEGPEGKLK [_VGVEVPDVNIEGPEGK(Formyl)LK_]
[21]
  collision cross section: 455.9 ± 1.7 Å²

## VGVEVPDVNIEGPEGKLK [_VGVEVPDVNIEGPEGK(Gluratylation)LK_]
[1]
  collision cross section: 461.98 ± 1.5 Å²
[2]
  collision cross section: 531 ± 29 Å²

## VGVEVPDVNIEGPEGKLK [_VGVEVPDVNIEGPEGK(GlyGly (K))LK_]
[3]
  collision cross section: 464.33 ± 1.3 Å²
[4]
  collision cross section: 509.72 ± 1.9 Å²

## VGVEVPDVNIEGPEGKLK [_VGVEVPDVNIEGPEGK(Malonyl)LK_]
[22]
  collision cross section: 458.25 ± 0.64 Å²

## VGVEVPDVNIEGPEGKLK [_VGVEVPDVNIEGPEGK(Methyl (K))LK_]
[6]
  collision cross section: 459.11 ± 16 Å²
[7]
  collision cross section: 535.61 ± 7.1 Å²

## VGVEVPDVNIEGPEGKLK [_VGVEVPDVNIEGPEGK(Succinyl)LK_]
[8]
  collision cross section: 461.15 ± 2.6 Å²
[9]
  collision cross section: 499.18 Å²

## VGVEVPDVNIEGPEGKLK [_VGVEVPDVNIEGPEGK(Trimethyl (K))LK_]
[23]
  collision cross section: 479.14 ± 17 Å²
[10]
  collision cross section: 530.81 ± 6.1 Å²

## VGVEVPDVNIEGPEGKLK [_VGVEVPDVNIEGPEGK(hydroxyisobutyryl)LK_]
[11]
  collision cross section: 459.37 ± 1.3 Å²

## VGYPGPSGPLGAR [_VGYP(Hydroxyproline)GPSGPLGAR_]
[24]
  collision cross section: 356.91 ± 0.79 Å²
[25]
  collision cross section: 437.31 ± 1.7 Å²

## VGYPGPSGPLGARGIPGIK [_VGYP(Hydroxyproline)GPSGPLGARGIPGIK_]
[24]
  collision cross section: 446.49 ± 1.1 Å²
[25]
  collision cross section: 508.9 ± 31 Å²

## VHATSTYR [_VHATSTY(Nitro (Y))R_]
[26]
  collision cross section: 330 ± 0.55 Å²
Charge state: 3, modification: Nitro (Y)
  collision cross section: 400.02 ± 0.83 Å²

## VHATSTYR [_VHATSTY(Phospho (Y))R_]
[27]
  collision cross section: 330.17 ± 0.75 Å²
Charge state: 3, modification: Phospho (Y)
  collision cross section: 411.28 Å²

## VILENIASHEPR [_VILENIAS(HexNAc (ST))HEPR_]
Charge state: 2, modification: HexNAc (ST)
  collision cross section: 443 ± 0.62 Å²
Charge state: 3, modification: HexNAc (ST)
  collision cross section: 492.7 ± 0.18 Å²

## VIVGGSSEYK [_VIVGGSSEY(Nitro (Y))K_]
[26]
  collision cross section: 344.24 ± 0.72 Å²

## VIVGGSSEYK [_VIVGGSSEY(Phospho (Y))K_]
[27]
  collision cross section: 358.71 ± 0.065 Å²

## VLATQPGPGRGR [_VLATQPGPGR(Citrullination (R))GR_]
Charge state: 2, modification: Citrullination (R)
  collision cross section: 364.01 ± 0.27 Å²
Charge state: 3, modification: Citrullination (R)
  collision cross section: 447.25 Å²

## VLATQPGPGRGR [_VLATQPGPGR(Methyl (R))GR_]
Charge state: 2, modification: Methyl (R)
  collision cross section: 376.85 ± 0.74 Å²
Charge state: 3, modification: Methyl (R)
  collision cross section: 455.74 ± 9.5 Å²

## VLDSGAPIKIPVGPETLGR [_VLDSGAPIK(Acetyl (K))IPVGPETLGR_]
[13]
  collision cross section: 463.33 ± 3.4 Å²
[14]
  collision cross section: 505.97 Å²

## VLDSGAPIKIPVGPETLGR [_VLDSGAPIK(Butyryl)IPVGPETLGR_]
[15]
  collision cross section: 472.51 ± 0.49 Å²
[16]
  collision cross section: 512.04 ± 1.8 Å²

## VLDSGAPIKIPVGPETLGR [_VLDSGAPIK(Crotonyl)IPVGPETLGR_]
[17]
  collision cross section: 470.51 ± 1.1 Å²
[18]
  collision cross section: 511.83 ± 1.6 Å²

## VLDSGAPIKIPVGPETLGR [_VLDSGAPIK(Dimethyl (K))IPVGPETLGR_]
[20]
  collision cross section: 506.24 ± 0.56 Å²

## VLDSGAPIKIPVGPETLGR [_VLDSGAPIK(Formyl)IPVGPETLGR_]
[21]
  collision cross section: 463.34 ± 1.2 Å²
